According to the nanobody polyreactivity screen of Harvey et al. (2022):

Assay: yeast display, Sf9 membrane polyspecificity reagent, FACS + sequencing; frameworks hold sequencing errors
In short: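 Galactose-induced (36–48 hours) yeast carrying a synthetic nanobody display library were exposed to 10% biotinylated, detergent-solubilized Sf9 membrane reagent at 4 °C for 1 hour. FACS followed streptavidin microbead enrichment, using low and high (top ~1%) gates for expression (anti-HA) and reagent binding (streptavidin). Colony PCR, MiSeq 2 × 250 sequencing and CDR-length filtering followed. Labels for polyreactivity reflect the gate of origin.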

| Sequence | polyreactivity (PSR sort gate) |
| --- | --- |
| QVQLVESGPGLVQAGGSLRLSSAASGLTFRWNGMGWYRQATGKERELVAAITGNAGSTYYADSVKGRFTISRDNAKNTVYLQMKSLNPEDTAVYYCAARLRYYYLVGYGYWGQGTQVTVSS | high polyreactivity |
| QVQLVESGGGLVQAGGSLRLSCAASGIIFRYYAMGWYRQAPGKERELVAGITSNGGSTYYADSVKGRFTISRDNAKNTVYLQMNSLKPVDTAVYYCAAVSLYVWWALEYWGQGTQVTVSS | high polyreactivity |
| QVQLVESGGGLVQAGGSLRLSCAASGSTLDYNAMGWYRQAPGKEREFVADITWSGGSTHYADSVKGRFTISRDNSKNTVYLQMNSLKPEDTAVYYCATAYYYHGGYYYPYDDYWGQGTQVTVSS | low polyreactivity |
| QVHLVESVGGLVQAGGSLRLSCAASGSTFIYYAMVRYRQAPGKERELVASISRSGGSTYYADSVKGRFTISRDNAKNTVYLQMNSLKPEDTAFYYCARAYRSSFNYWGQGTQVTVSS | high polyreactivity |
| QVQLVESGGGLVQAGGSLRLSCAASGSISYFNDMGWYRQAPGKERELVAAIRDSGGITYADSVKGRFTISRDNAKYTVYLQMNSLKPEDTAVYYCATYGNEIYDYWGQGTQVTVSS | low polyreactivity |
| QVQLVESGGGLVQAGGSLRLSCAASGRTFLYYAMGWYRQAPGKERELVASISTGGSTNYADSVKGRFTISRDNAKNTVYLQMNSLKPEDTAVYYCATEYPYSYFSIAHYHHGYWGQGTQVTVSS | low polyreactivity |
| QVHLVESGGGLVQAGGILRLSCAASGRTFPGYAMGWYRQAPGKERELVAAITYTGGDTHYADSVKGRFTISRDNAKNTVYLQMNSLKPEDTAVYYCAAVYYRGIQSYDYWGQGTQVTVSS | low polyreactivity |
| QVQLVESGGGLVQAGGSLRLSCAASGFIFYRYTMGWYRQAPGKERELVAAITSAGSTYYADSVKGRFTISRDNAKNTVYLQMNSLKPEDTAVYYCNADSTWGGYGFDYWGQGTQVTVSS | low polyreactivity |
| QVQLVESGGGLVQAGGSLRLRCASSGRNFVPYAMGGDRQAPGTEREFVAAISRSGGSTHYADSVKGRFTISRDNAKNTVYLQMNSLKPEDTAVYYCAADYDLWLWSGYYWGQGTQVTVSS | high polyreactivity |
| PVQLVESGGGLVQAGVSLRLSGAASGFIFYYYAMGWYSQAPGKEREFVAAISQSVGSTYYADSVKGRFTISRDNANNTVYLQMNSLKPADTAVYYCNARGWIPARGWDDYYWGQGTQVTVSS | high polyreactivity |
| QVQLVESGGGLVQAGGSLRLSCAAYGITFAYYVMGWYRQAPGKERELVAAISRSGSTYYADSVKGRFTISRDNAKITVYLQMNCLKPEDTAVYYCAVLYIRWYTYEYWGQGTQVTVSS | high polyreactivity |
| QVQLVESGGGLVQAGGRLRLSCAASGRTFDDYAMGWYRQAPGKERELVAVITSGGRTKYADSVKGRFTISRDNAKNTVYLQMNSLKPEDTAVYYCAAREVHDRYGYWGQGTQVTVSS | high polyreactivity |
| QVQLVESGGGLVQAGGSLRLSCAASGRTFAAYAMGWYRQAPGKEREFVADITYSGGSTTYADSVKGRFTISRDNAKNTVYLQMNSLKPEDTAVYYCNKLAYTRGWRGFVWYDYWGQGTQVTVSS | low polyreactivity |
| QVQLVDSGGGLVQAGGSLRLSCAASGSTLVYKDMGLYRQAPGKEREFVAAIRSNDGSTYYADSVKGRFTISRDNAKNTVYLQMNSLKPEDTAVYYCAKGRYAYSIWDDYWGQGTQVTVSS | low polyreactivity |
| QDQLVESGGGLVQAGGSLRLSCAASGFTFAANAMGWSRQAPGKERELVAAISSDSTYADSVKGRFTISRDNAKNTVYLQLNSLKPEDTAVYYCAKDRYIVNSPGLDYWGQGTQVTVSS | low polyreactivity |
| QVQLVESWGGLVQAGGSLRISCAASGNIFRYAMGWYRQAPGKERELVAAITYRGSTTYYADSVKGRFTISCDNAKNTVYLQMISLKPEDTAVYYCAARASYTRRHVGRPYDYWGQGTQVSVSS | high polyreactivity |

| Sequence | polyreactivity (PSR sort gate) |
| --- | --- |
| QVQLVESGGGLVQAGGSLRLSCAASGRTFYGYAMGWYRQAPGKEREFVAAINRSGGTTYYADSVKGRFTISRDNAKNTVYLQMNSLKPEDTAVYYCAADYSRIRRWPGYYAYDYWGQGTQVTVSS | high polyreactivity |
| QDQLVESGGGLVQAGGSLRLSCAASGINFKYYAMGWYRQAPGKERELVAAISRSGSSTYYADSVKGRFTISRDNAKNTVYLQMNSLIPEDTSVYYCADQPYDSNYGNSGYWGQGTQVTVSS | high polyreactivity |
| QVQLVESGGGLVQAGGSLRLSCAASGRIFKGYAMGWYRQAPGKESELVAAITWRGGTTYYADSVKGRFTISRDNAKNTVYLQMNSLKPEDTAVYYCARARPTGYNYWGQGTQVTVSS | high polyreactivity |
| QVQLVESGGGLVQAGCSLRLSCAASGSIFPFNAMGWYRQAPGKERELVAAITRSGGSTYYADSVKGRFTISRDNAKNTVYLQMNSLKPEDTAVYYCATDPEWPLPAYYYWGQGTQVTVSS | low polyreactivity |
| QVQLVESGGGLVQAGGSLRLSCAASGRTLTRYTMGWYRQAPGKERELVATISRSGGNTHYADSVKGRFTISRDNAKNTVYLQMNSLKPEDTAVYYCNAVRYAIYGYDYWGQGTQVTVSS | high polyreactivity |
| QVQLGESGGGFVQAGGLLRLSCAASGRTFRVYAMGWYRQAPGKERELVAAITRGGSTYYADSVKGRFTFSRDNAQNTVYLQMNSLKPEDTAVYSCAADVLRTQPIGWYSHSPLEYWGQGTQVTVSS | high polyreactivity |
| QVQLVESGGGLVQAGGSLRLSCAASGNTFRWYDMGWYRQAPGKERELVAGITRVGCTNYADSVKGRFTISRDNAKNTVYLQMNSLKPEDTAVYYCAARPRWFYGYPYGIIGYDYWGQGTQVTVSS | high polyreactivity |
| QVQLVESGGGLVQAGGSLRLSCAASGRIFYDYTMGWYRQAPGKERELVAAINSGGGSTYYADSVKGRFTISRDNAKNTVYLQMNSLKPEDTAVYYCNADGQWNIWEYDYWGQGTQVTVSS | high polyreactivity |
| QVQLVESGGGLVQAGGSLRLSCAASGFNFRSYAIGCYRQAPGKERELVAAITSTGGRTYYADSVKGRFTISRDNAKNTVYLQMNSLKPEETAVYYCAAGRKHYAPVHFGYWGQGTQVTVSS | high polyreactivity |
| QDQLVESGGGLVQAGGSLRLSCAASGGTFPEYALGWYRQAPGKERELLAAIRTDGRTYYADSVKGRFTISRDNAKNTVYLQMNSLKPEDTAVYYCAADSRYSRPYTWRKAYDYLGQGTQVTVSS | low polyreactivity |
| QVQLVESGGGLVQAGGSLRLSCAASGLTFWYYVMGWYRQAPGKERELVAAINIGGSTKYAYSVKGRFTISRDNAKNTVYLQMNSLKPEDTAVYYCAAQYYYTGTRSIRSFDYWGQGTQVTVSS | low polyreactivity |
| QVQLVESGGGLVQAGGSLRLSCSASGSIFSHYVMGWYRQAPGKERELVAAISPSGDSTYYADSVKGRFTISRDNAKNTVYLQMNSLKPEDTAVYYCNAGFGQYRYRGHDDYWGQGTQVTVSS | high polyreactivity |
| QVQLVDSGGGLVQAGGSLRLSCAASGFTFRPYAMGWYRQAPGKERELVATITGRGGSTYYADSVKGRFTISRDTAKNTVYLQMNSLKPEDTAVYYCASRARYSPAPYDYWGQGTQVTVSS | high polyreactivity |
| QVQLVESGGGLVQAGGSLRLSCAASGRTFASYARGWYRQAPGKERELVAVITRGVRTYYADSVKGRFTISRDNAKNTVYLQMNSLKPEDTAVYYCAKERYNANYDTSLYDYWGQGTQVTVSS | low polyreactivity |
| QVQLGESGGGLVQAGGSLRLICAASGRIFYRNAMGWYRQAPGKERELVAGISNRGGSTYYADSVKGRFTISRDNAKNTVYLQMNSLKPEDTAVYYCATVPFSPPSAGPEYDYWGQGTQVTVSS | high polyreactivity |
